Assay results: patent EP1257648B2 (AMGEN INC., dated 2016)
Where “and” joins values, the source holds several entries; their conditions need not be identical. Equal entries are not always repeated.

T1: human OPGbp[143-317] (human, UniProt O14788 143-317)
T1 sequence (looked up): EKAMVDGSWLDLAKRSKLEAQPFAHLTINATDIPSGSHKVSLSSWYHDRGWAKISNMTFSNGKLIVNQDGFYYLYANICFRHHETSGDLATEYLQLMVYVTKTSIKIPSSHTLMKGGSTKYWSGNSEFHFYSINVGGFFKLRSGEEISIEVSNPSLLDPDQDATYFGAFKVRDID


Biological target: T1, human OPGbp[143-317]
Experiment: cell-based or functional assay

Binder | IC50, RAW cell assay (TRAP), positive control [µg/mL] | IC50, RAW cell assay (TRAP) | IC50, murine bone marrow osteoclast formation assay (TRAP, pNPP) [nM] | IC50, bone marrow assay (TRAP) | IC50, murine bone marrow assay (TRAP)
human OPG [22-194]-Fc (Fc fusion, UniProt O00300 22-194, looked up, not shown: a dimerising Fc or GST) ETFPPKYLHYDEETSHQLLCDKCPPGTYLKQHCTAKWKTVCAPCPDHYYTDSWHTSDECLYCSPVCKELQYVKQECNRTHNRVCECKEGRYLEIEFCLKHRSCPPGFGVVQAGTPERNTVCKRCPDGFFSNETSSKAPCRKHTNCSVFGLLLTQKGNATHDNICSGNSESTQK | 0.033 |  |  |  | 
Fab "AT" (Fab, V domains shown) VH: QVQLVQSGAEVRKPGASVKVSCKASGYDFSNYAIHWVRQAPGQRLEWMGWINAGNGNTKFSQKFQGRITVTRDTAASTAYMELRSLRSEDTAVYYCARDSSNMVRGIIIAYYFDYWGQGTLVTVSS VL: EIVMTQSPSSLSASVGDRVTITCRASQSISRYLNWYQLKPGKAPRLLIYGASSLQSGVPSRFSGSGSGAEFTLTISSLQPEDIATYYCQHTRAFGQGTKVEIKR |  | 15 µg/ml and 300 nM | 57.8 |  | 
"AT" antibody (antibody, V domains shown) VH: QVQLVQSGAEVRKPGASVKVSCKASGYDFSNYAIHWVRQAPGQRLEWMGWINAGNGNTKFSQKFQGRITVTRDTAASTAYMELRSLRSEDTAVYYCARDSSNMVRGIIIAYYFDYWGQGTLVTVSS VL: EIVMTQSPSSLSASVGDRVTITCRASQSISRYLNWYQLKPGKAPRLLIYGASSLQSGVPSRFSGSGSGAEFTLTISSLQPEDIATYYCQHTRAFGQGTKVEIKR |  | 60.3 nM and 21.4 nM and 3 ug/ml and 9 ug/ml and 3.2 ug/ml and 20.1 nM |  | 2.35 µg/ml and 14.4 nM | 2.15 ug/ml and 14.4 nM and 1.85 ug/ml and 12.5 nM
